Laboratory results published in patent publication US20210261648A1 (published 2021).

B1: GpH7-G1d/GpL16-k0 (antibody, human IgG1, kappa)
heavy: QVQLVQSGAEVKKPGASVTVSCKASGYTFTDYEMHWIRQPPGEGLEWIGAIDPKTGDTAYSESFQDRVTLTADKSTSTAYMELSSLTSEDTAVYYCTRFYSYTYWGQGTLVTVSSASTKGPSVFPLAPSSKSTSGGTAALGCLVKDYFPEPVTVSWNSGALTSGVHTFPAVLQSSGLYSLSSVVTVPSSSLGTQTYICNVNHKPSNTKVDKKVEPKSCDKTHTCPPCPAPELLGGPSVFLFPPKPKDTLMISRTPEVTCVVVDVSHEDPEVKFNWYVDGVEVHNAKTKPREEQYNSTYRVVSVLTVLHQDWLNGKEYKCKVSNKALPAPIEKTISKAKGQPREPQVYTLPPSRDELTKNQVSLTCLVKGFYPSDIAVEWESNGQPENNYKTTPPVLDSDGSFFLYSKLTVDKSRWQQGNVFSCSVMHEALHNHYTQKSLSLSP
light: DIVMTQSPLSLPVTPGEPASISCQASESLVHSNRNTYLHWYLQKPGQSPQLLIYKVSNRFSGVPDRFSGSGSGTDFTLKISRVEAEDVGVYYCSQNTHVPPTFGQGTKVEIERTVAAPSVFIFPPSDEQLKSGTASVVCLLNNFYPREAKVQWKVDNALQSGNSQESVTEQDSKDSTYSLSSTLTLSKADYEKHKVYACEVTHQGLSSPVTKSFNRGEC
notes: Anti-glypican 3 IgG1 without C-terminal Gly and Lys
B2: GpH7-AP001/GpH7-BF648/GpL16-k0 (antibody, human IgG1, kappa, name in EU numbering)
heavy 1: QVQLVQSGAEVKKPGASVTVSCKASGYTFTDYEMHWIRQPPGEGLEWIGAIDPKTGDTAYSESFQDRVTLTADKSTSTAYMELSSLTSEDTAVYYCTRFYSYTYWGQGTLVTVSSASTKGPSVFPLAPSSKSTSGGTAALGCLVKDYFPEPVTVSWNSGALTSGVHTFPAVLQSSGLYSLSSVVTVPSSSLGTQTYICNVNHKPSNTKVDKKVEPKSCDKTHTCPPCPAPELLGGDSVFLFPPKPKDTLMISRTPEVTCVVVDVSHEDPEVKFNWYVDGVEVHNAKTKPREEQYNSTYRVVSVLTVLHQDWLNGKEYKCKVSNKALPAPIEKTISKAKGQPREPQVYTLPPSRKELTKNQVSLTCLVKGFYPSDIAVEWESNGQPENNYKTTPPVLDSDGSFFLYSKLTVDKSRWQQGNVFSCSVMHEALHNRYTQKSLSLSP
heavy 2: not shown
light: DIVMTQSPLSLPVTPGEPASISCQASESLVHSNRNTYLHWYLQKPGQSPQLLIYKVSNRFSGVPDRFSGSGSGTDFTLKISRVEAEDVGVYYCSQNTHVPPTFGQGTKVEIERTVAAPSVFIFPPSDEQLKSGTASVVCLLNNFYPREAKVQWKVDNALQSGNSQESVTEQDSKDSTYSLSSTLTLSKADYEKHKVYACEVTHQGLSSPVTKSFNRGEC
notes: Heterodimerized anti-glypican 3 IgG1; P238D in both chains
B3: GpH7-AP001/GpH7-BP044/GpL16-k0 (antibody, human IgG1, kappa)
heavy 1: QVQLVQSGAEVKKPGASVTVSCKASGYTFTDYEMHWIRQPPGEGLEWIGAIDPKTGDTAYSESFQDRVTLTADKSTSTAYMELSSLTSEDTAVYYCTRFYSYTYWGQGTLVTVSSASTKGPSVFPLAPSSKSTSGGTAALGCLVKDYFPEPVTVSWNSGALTSGVHTFPAVLQSSGLYSLSSVVTVPSSSLGTQTYICNVNHKPSNTKVDKKVEPKSCDKTHTCPPCPAPELLGGDSVFLFPPKPKDTLMISRTPEVTCVVVDVSHEDPEVKFNWYVDGVEVHNAKTKPREEQYNSTYRVVSVLTVLHQDWLNGKEYKCKVSNKALPAPIEKTISKAKGQPREPQVYTLPPSRKELTKNQVSLTCLVKGFYPSDIAVEWESNGQPENNYKTTPPVLDSDGSFFLYSKLTVDKSRWQQGNVFSCSVMHEALHNRYTQKSLSLSP
heavy 2: not shown
light: DIVMTQSPLSLPVTPGEPASISCQASESLVHSNRNTYLHWYLQKPGQSPQLLIYKVSNRFSGVPDRFSGSGSGTDFTLKISRVEAEDVGVYYCSQNTHVPPTFGQGTKVEIERTVAAPSVFIFPPSDEQLKSGTASVVCLLNNFYPREAKVQWKVDNALQSGNSQESVTEQDSKDSTYSLSSTLTLSKADYEKHKVYACEVTHQGLSSPVTKSFNRGEC
notes: Heterodimerized anti-glypican 3 IgG1; copies: 1 + 1 + 2
B4: GpH7-A5/GpH7-B3/GpL16-k0 (antibody, human IgG1, kappa)
heavy 1: not shown
heavy 2: not shown
light: DIVMTQSPLSLPVTPGEPASISCQASESLVHSNRNTYLHWYLQKPGQSPQLLIYKVSNRFSGVPDRFSGSGSGTDFTLKISRVEAEDVGVYYCSQNTHVPPTFGQGTKVEIERTVAAPSVFIFPPSDEQLKSGTASVVCLLNNFYPREAKVQWKVDNALQSGNSQESVTEQDSKDSTYSLSSTLTLSKADYEKHKVYACEVTHQGLSSPVTKSFNRGEC
notes: Heterodimerized anti-glypican 3 IgG1 (A5: D356K/H435R; B3: K439E); also called A5/B3
B5: GpH7-AP001/GpH7-BP032/GpL16-k0 (antibody, human IgG1, kappa)
heavy 1: QVQLVQSGAEVKKPGASVTVSCKASGYTFTDYEMHWIRQPPGEGLEWIGAIDPKTGDTAYSESFQDRVTLTADKSTSTAYMELSSLTSEDTAVYYCTRFYSYTYWGQGTLVTVSSASTKGPSVFPLAPSSKSTSGGTAALGCLVKDYFPEPVTVSWNSGALTSGVHTFPAVLQSSGLYSLSSVVTVPSSSLGTQTYICNVNHKPSNTKVDKKVEPKSCDKTHTCPPCPAPELLGGDSVFLFPPKPKDTLMISRTPEVTCVVVDVSHEDPEVKFNWYVDGVEVHNAKTKPREEQYNSTYRVVSVLTVLHQDWLNGKEYKCKVSNKALPAPIEKTISKAKGQPREPQVYTLPPSRKELTKNQVSLTCLVKGFYPSDIAVEWESNGQPENNYKTTPPVLDSDGSFFLYSKLTVDKSRWQQGNVFSCSVMHEALHNRYTQKSLSLSP
heavy 2: not shown
light: DIVMTQSPLSLPVTPGEPASISCQASESLVHSNRNTYLHWYLQKPGQSPQLLIYKVSNRFSGVPDRFSGSGSGTDFTLKISRVEAEDVGVYYCSQNTHVPPTFGQGTKVEIERTVAAPSVFIFPPSDEQLKSGTASVVCLLNNFYPREAKVQWKVDNALQSGNSQESVTEQDSKDSTYSLSSTLTLSKADYEKHKVYACEVTHQGLSSPVTKSFNRGEC
notes: as for B3
B6: GpH7-AP001/GpH7-BP061/GpL16-k0 (antibody, human IgG1, kappa, name in EU numbering)
heavy 1: QVQLVQSGAEVKKPGASVTVSCKASGYTFTDYEMHWIRQPPGEGLEWIGAIDPKTGDTAYSESFQDRVTLTADKSTSTAYMELSSLTSEDTAVYYCTRFYSYTYWGQGTLVTVSSASTKGPSVFPLAPSSKSTSGGTAALGCLVKDYFPEPVTVSWNSGALTSGVHTFPAVLQSSGLYSLSSVVTVPSSSLGTQTYICNVNHKPSNTKVDKKVEPKSCDKTHTCPPCPAPELLGGDSVFLFPPKPKDTLMISRTPEVTCVVVDVSHEDPEVKFNWYVDGVEVHNAKTKPREEQYNSTYRVVSVLTVLHQDWLNGKEYKCKVSNKALPAPIEKTISKAKGQPREPQVYTLPPSRKELTKNQVSLTCLVKGFYPSDIAVEWESNGQPENNYKTTPPVLDSDGSFFLYSKLTVDKSRWQQGNVFSCSVMHEALHNRYTQKSLSLSP
heavy 2: not shown
light: DIVMTQSPLSLPVTPGEPASISCQASESLVHSNRNTYLHWYLQKPGQSPQLLIYKVSNRFSGVPDRFSGSGSGTDFTLKISRVEAEDVGVYYCSQNTHVPPTFGQGTKVEIERTVAAPSVFIFPPSDEQLKSGTASVVCLLNNFYPREAKVQWKVDNALQSGNSQESVTEQDSKDSTYSLSSTLTLSKADYEKHKVYACEVTHQGLSSPVTKSFNRGEC
notes: Heterodimerized anti-glypican 3 IgG1
B7: GpH7-AP001/GpH7-BP057/GpL16-k0 (antibody, human IgG1, kappa)
heavy 1: QVQLVQSGAEVKKPGASVTVSCKASGYTFTDYEMHWIRQPPGEGLEWIGAIDPKTGDTAYSESFQDRVTLTADKSTSTAYMELSSLTSEDTAVYYCTRFYSYTYWGQGTLVTVSSASTKGPSVFPLAPSSKSTSGGTAALGCLVKDYFPEPVTVSWNSGALTSGVHTFPAVLQSSGLYSLSSVVTVPSSSLGTQTYICNVNHKPSNTKVDKKVEPKSCDKTHTCPPCPAPELLGGDSVFLFPPKPKDTLMISRTPEVTCVVVDVSHEDPEVKFNWYVDGVEVHNAKTKPREEQYNSTYRVVSVLTVLHQDWLNGKEYKCKVSNKALPAPIEKTISKAKGQPREPQVYTLPPSRKELTKNQVSLTCLVKGFYPSDIAVEWESNGQPENNYKTTPPVLDSDGSFFLYSKLTVDKSRWQQGNVFSCSVMHEALHNRYTQKSLSLSP
heavy 2: not shown
light: DIVMTQSPLSLPVTPGEPASISCQASESLVHSNRNTYLHWYLQKPGQSPQLLIYKVSNRFSGVPDRFSGSGSGTDFTLKISRVEAEDVGVYYCSQNTHVPPTFGQGTKVEIERTVAAPSVFIFPPSDEQLKSGTASVVCLLNNFYPREAKVQWKVDNALQSGNSQESVTEQDSKDSTYSLSSTLTLSKADYEKHKVYACEVTHQGLSSPVTKSFNRGEC
notes: as for B3
B8: GpH7-A5/GpH7-BF648/GpL16-k0 (antibody, human IgG1, kappa)
heavy 1: not shown
heavy 2: not shown
light: DIVMTQSPLSLPVTPGEPASISCQASESLVHSNRNTYLHWYLQKPGQSPQLLIYKVSNRFSGVPDRFSGSGSGTDFTLKISRVEAEDVGVYYCSQNTHVPPTFGQGTKVEIERTVAAPSVFIFPPSDEQLKSGTASVVCLLNNFYPREAKVQWKVDNALQSGNSQESVTEQDSKDSTYSLSSTLTLSKADYEKHKVYACEVTHQGLSSPVTKSFNRGEC
notes: Heterodimerized anti-glypican 3 IgG1; P238D in the GpH7-B3 chain only

Legend:
[1] = target: T1, FcγRIIb extracellular domain with C-terminal His tag (human, UniProt P31994 43-217); test: SPR binding amounts, FcgRIIb divided by FcgRIIaR
T1 construct: extracellular domain; For crystallography it was expressed with kifunensine and trimmed with Endo F1; also called FcgRIIb; FcγRIIb extracellular region; not shown: His tag attached to the C terminus
T1 sequence (looked up): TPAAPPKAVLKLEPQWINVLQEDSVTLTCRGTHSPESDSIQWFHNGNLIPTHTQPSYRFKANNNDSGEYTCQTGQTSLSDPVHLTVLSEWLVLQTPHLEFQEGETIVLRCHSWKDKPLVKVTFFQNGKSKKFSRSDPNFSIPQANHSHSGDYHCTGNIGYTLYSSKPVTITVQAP

[2] = target: T1, FcγRIIb extracellular domain with …; test: SPR binding amount, relative to GpH7-AP001/GpH7-BF648/GpL16-k0
[3] = target: T2, FcγRIIa type R extracellular domain with C-terminal His tag (human, UniProt P12318 34-217); test: as above
T2 chain: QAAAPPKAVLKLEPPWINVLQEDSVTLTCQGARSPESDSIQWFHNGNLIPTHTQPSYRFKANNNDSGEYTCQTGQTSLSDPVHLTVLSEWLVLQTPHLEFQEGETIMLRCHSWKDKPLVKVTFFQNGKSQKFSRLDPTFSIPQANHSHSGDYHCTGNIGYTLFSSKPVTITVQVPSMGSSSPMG

Binder | amount binding to FcgRIIb/amount binding to FcgRIIaR [1] | binding amount to FcgRIIb when that of GpH7-AP001/GpH7-BF648 is defined as 100 [2] | binding amount to FcgRIIaR when that of GpH7-AP001/GpH7-BF648 is defined as 100 [3]
B1 | 0.5 | 65 | 515
B2 | 4 | 100 | 100
B3 | 0.8 | 127 | 609
B4 | 0.5 | 77 | 570
B5 | 1 | 129 | 538
B6 | 2.9 | 80 | –
B7 | 0.9 | 121 | 561
B8 | 0.8 | 131 | 677
